{
  "source": "patent US20190185546A1",
  "key": {"[1]": {"target": "HSV-1 (Herpes Simplex Virus type 1; antigen recognised not identified) (Herpes simplex virus 1)", "assay": "cell-based or functional assay"}, "[2]": {"target": "HSV-2 (Herpes Simplex Virus type 2; antigen recognised not identified) (Herpes simplex virus 2)", "assay": "cell-based or functional assay"}},
  "data": [
    {"binder": "Fab Ex2 (IgG1 Fab format) (Fab, V domains shown) VH: LESGGGVVQPGRSLRLSCAASGFTFTTFAMHWVRQAPGKGLEWLAFISYDGSNKYYADSVKGRFTISRDNSKNTLYLQMNSLRAEDTSIYYCAREVWNYADYWGQGALVTVSS VL: ELTQSPGTLSSSPGHRATLSCKASAPLGSNHMAWYQQKPGQAPRLLIYGASTRATGVPARFTGSGSGTDFTLTISSLQPEDFATYYCQQANSFPRTFGQGTKVEIK", "values": [
      {"measurement": "IC50 (neutralization, IIF infection foci count, InCellAnalyzer)", "setting": "[1]", "value": 0.7, "unit": "µg/mL"},
      {"measurement": "IC50 (neutralization, IIF infection foci count, InCellAnalyzer)", "setting": "[2]", "value": 0.2, "unit": "µg/mL"}
    ]}
  ]
}
